Source: PMC8567202, “Phosphoinositide-binding activity of Smad2 is essential for its function in TGF-β signaling” (The Journal of Biological Chemistry, 2021)

Experiment: SPR membrane binding to POPC/POPS vesicles
Conditions: for binding to POPC/POPS (80:20): RU/RUmax, 100 nM protein
Description: It has been generally thought that Smad2 and Smad3 are targeted to the activated TGF-β signaling complex by direct interaction with TβRI ([1], [2]) or via SARA ([7]). However, it has been shown that many cytosolic proteins that are targeted to membrane proteins or membrane-anchored signaling complexes have affinity for membrane lipids ([14]), phosphoinositides (PtdInsPs) in particular, and that their membrane recruitment is mediated by coincident lipid–protein and protein–protein interactions ([15], [16]). For most of these proteins, their PtdInsP specificity directs their membrane targeting behaviors: e.g., PI(4,5)P2-specific proteins are recruited to PM where the highest concentration of PI(4,5)P2 is found, whereas PI(3)P-specific proteins are targeted to PI(3)P-rich EEs ([17], [18]). To resolve uncertainty about the functional location of the activated TGF-β signaling complex, we thus explored the possibility that lipid-binding activity of Smad2 may play a role in specific targeting of Smad2 to the active TGF-β receptor complex either at the PM or at EEs. Lipid-binding activity of Smad proteins has not been reported to date. We thus measured the binding of bacterially expressed Smad2 to large unilamellar vesicles (LUVs) containing various lipids by surface plasmon resonance (SPR) analysis ([19], [20]). Lipid selectivity determined by SPR analysis is typically reported as the relative resonance unit (RU) values for different lipids at a given protein concentration ([21], [22]). Although simple and intuitive, this type of analysis can sometimes yield misleading and erroneous results because some proteins show widely different RU values when bound to different lipid surfaces. Thus, a more reliable parameter that represents the fraction of the membrane bound protein molecules at a given protein concentration would be a normalized value of RU/RUmax where RUmax indicates the maximal RU value when a given lipid surface is saturated with the protein molecules. We thus estimated RUmax for different lipid species by employing the highest protein concentration experimentally feasible (e.g., 1 μM) and determined RU/RUmax for different lipids at the protein concentration that allows robust comparison (e.g., 100 nM). Once the lipid selectivity has been determined by this semiquantitative approach, we then rigorously determined and compared Kd values for selected lipids for more accurate quantitative determination of lipid selectivity.
Figure 1 Membrane-binding properties of Smad2 FL protein and MH2 domain determined by SPR analysis.A, PtdInsP selectivity of Smad2-FL determined using POPC/POPS/PtdInsP (77:20:3 in mole ratio) LUVs coated on the L1 sensor chip. The protein concentration was 100 nM. PIP3 indicates PI(3,4,5)P3. B, determination of Kd for binding of Smad2 FL to different LUVs. The protein concentration was varied from 0 to 500 nM. C, PI(4,5)P2 concentration dependence of membrane binding of Smad2-FL determined using POPC/POPS/PI(4,5)P2 (77-x:20:x, x = 0–5 mol%) LUVs. The protein concentration was 100 nM. D, PtdInsP selectivity of the Smad2 MH2 domain determined using POPC/POPS/PtdInsP (77:20:3 in mole ratio) LUVs. The protein concentration was 100 nM. Normalized RU values (RU/RUmax) were used for all figures but (C) for more accurate determination of PtdInsP selectivity. RUmax values determined for different vesicles at 1 μM Smad2 were: 280 ± 20 for POPC/POPS/PI(4,5)P2 (77:20:3), 370 ± 10 for POPC/POPS/PI(3,4)P2 (77:20:3), 400 ± 15 for POPC/POPS/PI(3,4,5)P3 (or PIP3) (77:20:3), 400 ± 20 for POPC/POPS/PI(3)P (77:20:3), and 380 ± 20 for POPC/POPS (80:20). Only the association phases of the sensorgrams are shown and used for further analysis. Each set of sensorgrams shown in A and D are representatives of >5 independent measurements. Data points shown in B and C are the average ±S.D. values from triplicate measurements. […]

Row | Molecule | binding to POPC/POPS (80:20) (SPR) | RUmax (POPC/POPS (80:20), 1 μM Smad2) | Kd (SPR, L1 chip, 23 °C, 20 mM Tris, pH 7.4, 0.16 M NaCl, POPC/POPS (80:20), average ±S.D., n = 3, read-out: Kd for lipid binding, PC/PS) [nM]
1 | Smad2-W422A: W422A mutant of full-length Smad2; specific PI(4,5)P2 binding-compromised (protein, left off: His6, N-terminal, state not stated) MSSILPFTPPVVKRLLGWKKSAGGSGGAGGGEQNGQEEKWCEKAVKSLVKKLKKTGRLDELEKAITTQNCNTKCVTIPSTCSEIWGLSTANTVDQWDTTGLYSFSEQTRSLDGRLQVSHRKGLPHVIYCRLWRWPDLHSHHELKAIENCEYAFNLKKDEVCVNPYHYQRVETPVLPPVLVPRHTEILTELPPLDDYTHSIPENTNFPAGIEPQSNYIPETPPPGYISEDGETSDQQLNQSMDTGSPAELSPTTLSPVNHSLDLQPVTYSEPAFWCSIAYYELNQRVGETFHASQPSLTVDGFTDPSNSERFCLGLLSNVNRNATVEMTRRHIGRGVRLYYIGGEVFAECLSDSAIFVQSPNCNQRYGWHPATVCKIPPGCNLKIFNNQEFAALLAQSVNQGFEAVYQLTRMCTIRMSFVKGAGAEYRRQTVTSTPCWIELHLNGPLQWLDKVLTQMGSPSVRCSSMS | much less effects on binding |  | 
2 | Smad2-Y426A: Y426A mutant of full-length Smad2; specific PI(4,5)P2 binding-compromised (protein, left off: His6, N-terminal, state not stated) MSSILPFTPPVVKRLLGWKKSAGGSGGAGGGEQNGQEEKWCEKAVKSLVKKLKKTGRLDELEKAITTQNCNTKCVTIPSTCSEIWGLSTANTVDQWDTTGLYSFSEQTRSLDGRLQVSHRKGLPHVIYCRLWRWPDLHSHHELKAIENCEYAFNLKKDEVCVNPYHYQRVETPVLPPVLVPRHTEILTELPPLDDYTHSIPENTNFPAGIEPQSNYIPETPPPGYISEDGETSDQQLNQSMDTGSPAELSPTTLSPVNHSLDLQPVTYSEPAFWCSIAYYELNQRVGETFHASQPSLTVDGFTDPSNSERFCLGLLSNVNRNATVEMTRRHIGRGVRLYYIGGEVFAECLSDSAIFVQSPNCNQRYGWHPATVCKIPPGCNLKIFNNQEFAALLAQSVNQGFEAVYQLTRMCTIRMSFVKGWGAEARRQTVTSTPCWIELHLNGPLQWLDKVLTQMGSPSVRCSSMS | much less effects on binding |  | 
3 | Smad2- R427A/R428A: double mutant of full-length Smad2; PI(4,5)P2 and TβRI binding-compromised (protein, left off: His6, N-terminal, state not stated) MSSILPFTPPVVKRLLGWKKSAGGSGGAGGGEQNGQEEKWCEKAVKSLVKKLKKTGRLDELEKAITTQNCNTKCVTIPSTCSEIWGLSTANTVDQWDTTGLYSFSEQTRSLDGRLQVSHRKGLPHVIYCRLWRWPDLHSHHELKAIENCEYAFNLKKDEVCVNPYHYQRVETPVLPPVLVPRHTEILTELPPLDDYTHSIPENTNFPAGIEPQSNYIPETPPPGYISEDGETSDQQLNQSMDTGSPAELSPTTLSPVNHSLDLQPVTYSEPAFWCSIAYYELNQRVGETFHASQPSLTVDGFTDPSNSERFCLGLLSNVNRNATVEMTRRHIGRGVRLYYIGGEVFAECLSDSAIFVQSPNCNQRYGWHPATVCKIPPGCNLKIFNNQEFAALLAQSVNQGFEAVYQLTRMCTIRMSFVKGWGAEYAAQTVTSTPCWIELHLNGPLQWLDKVLTQMGSPSVRCSSMS | much less effects on binding |  | 
4 | Smad2-K420A: K420A mutant of full-length Smad2; predominantly TβRI binding-compromised (protein, left off: His6, N-terminal, state not stated) MSSILPFTPPVVKRLLGWKKSAGGSGGAGGGEQNGQEEKWCEKAVKSLVKKLKKTGRLDELEKAITTQNCNTKCVTIPSTCSEIWGLSTANTVDQWDTTGLYSFSEQTRSLDGRLQVSHRKGLPHVIYCRLWRWPDLHSHHELKAIENCEYAFNLKKDEVCVNPYHYQRVETPVLPPVLVPRHTEILTELPPLDDYTHSIPENTNFPAGIEPQSNYIPETPPPGYISEDGETSDQQLNQSMDTGSPAELSPTTLSPVNHSLDLQPVTYSEPAFWCSIAYYELNQRVGETFHASQPSLTVDGFTDPSNSERFCLGLLSNVNRNATVEMTRRHIGRGVRLYYIGGEVFAECLSDSAIFVQSPNCNQRYGWHPATVCKIPPGCNLKIFNNQEFAALLAQSVNQGFEAVYQLTRMCTIRMSFVAGWGAEYRRQTVTSTPCWIELHLNGPLQWLDKVLTQMGSPSVRCSSMS | modestly and similarly reduced binding to both vesicles |  | 
5 | Smad2 WT: bacterially expressed full-length Smad2 wild-type (protein, left off: His6, N-terminal, state not stated, bacterially expressed full-length Smad2 wild-type) MSSILPFTPPVVKRLLGWKKSAGGSGGAGGGEQNGQEEKWCEKAVKSLVKKLKKTGRLDELEKAITTQNCNTKCVTIPSTCSEIWGLSTANTVDQWDTTGLYSFSEQTRSLDGRLQVSHRKGLPHVIYCRLWRWPDLHSHHELKAIENCEYAFNLKKDEVCVNPYHYQRVETPVLPPVLVPRHTEILTELPPLDDYTHSIPENTNFPAGIEPQSNYIPETPPPGYISEDGETSDQQLNQSMDTGSPAELSPTTLSPVNHSLDLQPVTYSEPAFWCSIAYYELNQRVGETFHASQPSLTVDGFTDPSNSERFCLGLLSNVNRNATVEMTRRHIGRGVRLYYIGGEVFAECLSDSAIFVQSPNCNQRYGWHPATVCKIPPGCNLKIFNNQEFAALLAQSVNQGFEAVYQLTRMCTIRMSFVKGWGAEYRRQTVTSTPCWIELHLNGPLQWLDKVLTQMGSPSVRCSSMS |  | 380 ± 20 | 560 ± 150
